Experimental data from patent publication US10654893B2, “Self-assembling peptide compositions” (3-D MATRIX, LTD., priority 2014, dated 2020).

Experiments:
[1] = Stiffness and reversibility of RADA16 compositions with salts; type: physicochemical
Protocol: FIGS. 41A-41D depict the protocol used to follow peptide dissolution and to assess effects of particular anions and/or cations, and/or their concentration, on certain RADA16 (SEQ ID NO:1) compositions. As shown, peptide powder in a vial was dissolved in deionized water with vortexing and sonication. The particular peptide composition utilized in this Example was a 1% composition of RADA16 (SEQ ID NO:1) that was mixed at a 1:1 ratio with a 2× salt solution to obtain a final concentration of 0.5% RADA16 (SEQ ID NO:1) and the desired molar concentration of salt.
The protocol depicted in FIGS. 41A-41D was followed to analyze stiffness of peptide compositions containing either 2.5% RADA16 (SEQ ID NO:1) and no added salt or 2.5% RADA16 (SEQ ID NO:1) and 0.125 M CaCl2. Results are shown in FIG. 44, which provides a basic understanding of the viscoelastic properties of the resulting compositions.
The protocol depicted in FIGS. 41A-41D was followed to prepare solutions of 0.5% RADA16 mixed with 0.125, 0.25, or 0.5 M CaCl2 were prepared. The compositions were subjected to mechanical stress through vortexing and sonication, so that their structure was thoroughly disrupted (e.g., randomized). Disrupted compositions were then placed at room temperature for 48 hours to allow self-assembly to take place.

[2] = pH adjustment with 0.1 N NaOH, pH and visual observation; type: physicochemical; settings: for Appearance of composition: 2.5%
Protocol: In this Example, pH levels of peptide compositions was adjusted, for example, by addition of 0.1 N NaOH to 2 mL of a 2.5% peptide composition. pH and appearance of the adjusted compositions were observed. An acidic salt was added if the pH level was higher than the desired level.
With certain compositions, when pH levels of peptide compositions were higher than 3.5 (RADA16 (SEQ ID NO:1) and KLD12 (SEQ ID NO:2)) or 3.7 (IEIK13 (SEQ ID NO:3)), the peptide compositions began phase separation (i.e. becoming cloudy). In some embodiments, provided peptide compositions have a pH within the range of about 3.0 to about 3.7 (particularly for IEIK13 (SEQ ID NO:3)), or about 3.0 to about 3.5 (particularly for RADA16 (SEQ ID NO:1) and/or KLD12 (SEQ ID NO:2)).

[3] = test system: C57 BL/6 Mouse Mesenchymal Stem Cells (mMSCs); assay: Cell viability (cytotoxicity) assay; type: cell-based
Protocol: A cell viability (cytotoxicity) assay was performed to measure the viability of C57 BL/6 Mouse Mesenchymal Stem Cells (mMSCs) with IEIK13 (SEQ ID NO:3), KLD12 (SEQ ID NO:2) and RADA16 (SEQ ID NO:1) compositions as described herein. mMSCs are a frequently used cell line in hydrogel tissue culture systems. […] The final concentration of sucrose was 10%. Cells were washed and re-suspended in 10% sucrose to a final concentration of 5 million cells/ml. Cells were centrifuged and the supernatant was removed. The cells were re-suspended in peptide compositions with 10% sucrose. The protocol was then followed for plating drop cultures and subsequent isolation as described in the PuraMatrix® Guidelines for Use (BD/Corning website). Results are shown in FIGS. 14-16 for RADA16 (SEQ ID NO:1), IEIK13 (SEQ ID NO:3), and KLD12 (SEQ ID NO:2), respectively.

[4] = Rheological properties (stiffness, storage modulus, viscosity) at selected pH levels; type: physicochemical
Protocol: Rheological properties of certain peptide compositions were observed before and after adjusting their pH levels to 3.4 (RADA16 (SEQ ID NO:1) and KLD12 (SEQ ID NO:2)) or 3.7 (IEIK13 (SEQ ID NO:3)). Rheological properties of peptides were evaluated using a rheometer (AR500, TA Instruments) with 40 mm plates. Specifically, a peptide composition (700 μL) was placed on the rheometer plate and excess composition was gently removed by Kimwipes. Measurements were performed after 2 minutes of relaxation time at 37° C. RADA16 (SEQ ID NO:1), KLD12 (SEQ ID NO:2) and IEIK13 (SEQ ID NO:3) compositions at elevated pH were stiffer than those at 2.5 (RADA16 (SEQ ID NO:1)), 2.0 (KLD12 (SEQ ID NO:2)), and 2.1 (IEIK13 (SEQ ID NO:3)).
Storage modulus of certain peptide compositions at selected pH levels were evaluated using a rheometer (DHR-1, TA Instruments) with 20 mm plates. […] Determined storage moduli for tested peptide compositions are shown in FIG. 18 for RADA16 (SEQ ID NO:1) and FIG. 19 for IEIK13 (SEQ ID NO:3), respectively.
Viscosities of 1% IEIK13 (SEQ ID NO:3) compositions at selected pH levels were evaluated using a rheometer (DHR-1, TA Instruments) with 20 mm plates.

## Arg-Ala-Asp-Ala-Arg-Ala-Asp-Ala-Arg-Ala-Asp-Ala-Arg-Ala-Asp-Ala [RADA16]
[1]; 0.5% RADA16, 0.125 or 0.25 M CaCl2, vortexing and sonication, 48 hours at room temperature
  Reversibility after mechanical perturbation: reversibility can be maintained
[1]; 0.5% RADA16, 0.5 M CaCl2, vortexing and sonication, 48 hours at room temperature
  Stiffness after disruption: dramatically less stiffness
[1]; 2.5% RADA16 and 0.125 M CaCl2 versus 2.5% RADA16
  Stiffness with salt versus no added salt: noticeable increase in stiffness
[2]; 0.1N NaOH 0 μL/mL, Conc. 2.5%, pH 2.2 (RADA16), 1.8 (IEIK13), 2.1 (KLD12)
  Observation: Clear, thick gel
[2]; 0.1N NaOH 50 μL/mL, Conc. 2.38%, pH 2.3 (RADA16), 2.1 (IEIK13), 2.4 (KLD12)
  Observation: Clear, thick gel
[2]; 0.1N NaOH 100 μL/mL, Conc. 2.27%, pH 2.4 (RADA16), 2.2 (IEIK13), 2.6 (KLD12)
  Observation: Clear, thick gel
[2]; 0.1N NaOH 150 μL/mL, Conc. 2.17%, pH 2.7 (RADA16), 2.7 (IEIK13), 2.9 (KLD12)
  Observation: Clear, thick, stiffer gel
[2]; 0.1N NaOH 200 μL/mL, Conc. 2.08%, pH 2.9 (RADA16), 3.0 (IEIK13), 3.3 (KLD12)
  Observation: Clear, thick, stiffer gel
[2]; 0.1N NaOH 250 μL/mL, Conc. 2.0%, pH 3.2 (RADA16), 3.3 (IEIK13), 4.0 (KLD12)
  Observation: Clear, thick, stiffer gel
[2]; 0.1N NaOH 275 μL/mL, Conc. 1.96%, pH 3.4 (RADA16), 3.7 (IEIK13)
  Observation: Clear, thick, stiffer gel
[2]; 0.1N NaOH 300 μL/mL, Conc. 1.92%, pH 3.6 (RADA16), 4.0 (IEIK13), 4.7 (KLD12)
  Observation: Slightly cloudy, brittle gel
[2]; 0.1N NaOH 350 μL/mL, Conc. 1.85%, pH 4.5 (RADA16), 4.5 (IEIK13), 5.2 (KLD12)
  Observation: Cloudy, phase-separated
[2]; 0.1N NaOH added in 2.5% composition 0 μL/mL, Conc. 2.5%
  Peptide composition pH: 2.2
[2]; 0.1N NaOH added in 2.5% composition 50 μL/mL, Conc. 2.38%
  Peptide composition pH: 2.3
[2]; 0.1N NaOH added in 2.5% composition 100 μL/mL, Conc. 2.27%
  Peptide composition pH: 2.4
[2]; 0.1N NaOH added in 2.5% composition 150 μL/mL, Conc. 2.17%
  Peptide composition pH: 2.7
[2]; 0.1N NaOH added in 2.5% composition 200 μL/mL, Conc. 2.08%
  Peptide composition pH: 2.9
[2]; 0.1N NaOH added in 2.5% composition 250 μL/mL, Conc. 2.0%
  Peptide composition pH: 3.2
[2]; 0.1N NaOH added in 2.5% composition 275 μL/mL, Conc. 1.96%
  Peptide composition pH: 3.4
[2]; 0.1N NaOH added in 2.5% composition 300 μL/mL, Conc. 1.92%
  Peptide composition pH: 3.6
[2]; 0.1N NaOH added in 2.5% composition 350 μL/mL, Conc. 1.85%
  Peptide composition pH: 4.5
[2]; pH about 3.5 (FIG. 12)
  Appearance of composition: clear
[2]; pH=3.6 (FIG. 12)
  Appearance of composition: slightly cloudy
[2]; pH=4.0 (FIG. 12)
  Appearance of composition: precipitated
[2]; pH 7.0, NaOH volume and conc. not given
  Observation: Cloudy, phase-separated
[3]
  Cell viability at 0.5% versus 0.25%: significantly higher than that at 0.25%
[4]; DHR-1, 20 mm plates, 2.5% RADA16, 1.5% IEIK13 (FIGS. 18, 19)
  Storage modulus as a function of pH: increased with pH increase up to 3.4
[4]; pH 3.4 (RADA16, KLD12) or 3.7 (IEIK13) versus 2.5 (RADA16), 2.0 (KLD12), 2.1 (IEIK13), stress sweep
  Stiffness at elevated pH versus unadjusted pH: stiffer
